Results reported in the RNAGym collection of RNA variant scans (doi:10.1073/pnas.2313332121).

B1: TPR t1 (parent)
chain: GACCAAUCUGCCCUCAGAGCUCGAGAACAUCUUCGGAUGCAGAGGAGGCAGGCUUCGGUGGCGCGAUAGCGCCAACGUCCUCAACCUCCAAUGCAUCCCACCACAUGAUGAUGCCUGAAGAGCCUUGGUUUUUUG

Variants of: B1
Assay: polymerase ribozyme fitness, log enrichment relative to wild type (log ratio); higher = more active; in vitro selection for triplet polymerase activity
Procedure, shortened: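 Frozen incubation at −7 °C formed the core of a single, triplicate in vitro selection round applied to PCR-built, transcribed mutant libraries of each subunit of a heterodimeric triplet polymerase ribozyme. Extended constructs were gel-excised, captured with streptavidin beads and amplified by RT-PCR, and input and output libraries were Illumina-sequenced with a filter of ≥10 input reads and ≥1 read per output. Fitness is the logarithm of genotype enrichment relative to wild-type enrichment, with inverse-variance-weighted replicate averaging, and the logarithm is base 2.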

Variant | polymerase ribozyme fitness (log ratio)
A108G G120A C124G U131G | -0.578
C11G G45A G52U C101A U106A A121U | 0.469
A18C G42U A46G G47A C86U | -2
C8A A75G G117A A121U | 1.31
A43C U87G | -2.73
G35C A111C | -4.47
A18U C40U C72U U78G C123G G135C | -1.48
C20U C73U A95C U129A | -4.3
C104A G127A | -3.1
A2G C13G | 0.491
C34A C73G U106A | -4.25
A2G U14G C70A C101G G120U G127C | -3.71
C12U C88U | 0.381
C20G A46U A118G | -5.92
C15A A18U C98U G107C G113U U125G | -6.57
C13A G39U G69U U109A | -5.33
C4A G52A C53A A90U U130C | -3.34
G17U G44C G57U U112C G135A | -1.76
U9G C70A C86A C123U | -0.996
U9A C72U | 0.716
A27C C72U | -2.78

Variant | polymerase ribozyme fitness (log ratio)
G17U C114G U132A | -5.35
G58C C62U C114A G127A U130G | -5.36
A6U C11U G47A A118U | -1.52
C40G C62U U87G | -1.61
G42C C76A U78A | -2.31
C56U C85A C88A | -2.83
G10U C40A C76G A83U C101A | -3.85
C15U G45A C56A G77C C88G G117C C123U | -4.21
G10U G48C G60A | -0.865
C22G C31A U92C U96A A111U | -5.09
C62A C124U | 1.51
A46C C49A G63A | -0.445
C56U C80G | -5.25
U116C G117C | -2.2
G47U G71A C104U | -2.44
C53A C104A | -1.8
C8A A43C A46U C86U U96A | -3.85
U32C G77U U126G | -2.53
C13G G47A G63U U96G | -3.63
C8A A18C | -1.93
G48A G117A | -2.44

Variant | polymerase ribozyme fitness (log ratio)
G69C A83G | -2.31
G10U G42U | -2.78
C72U U81C G93C A119U G120C | -0.213
A16G G60A G120C | -0.306
G48U A90U | -1.38
A2C C3U C56G G69U | -4.15
G61A U87A | 0.597
C20U C72A C102U U109A C114A U133G | -5.73
U9G G45A A46C U106C | -0.292
U59C G117C | -3.91
A50U U109A | -5.95
C73A C99U A118G | -3
C22A C53U C64U C124U | -3.7
A50U C56U G71C C123A | -6.51
G52U U81C | -1.74
C15U G77A U87G U125A | -2.39
G52A G63A C73U U81C C114A | -7.55
C13U G47A U78C G120A C123U U125A G128A | -0.365
C82U C97A | -4.95
C11U C56A | -0.322
G10A G61C A83U | -2.03

Variant | polymerase ribozyme fitness (log ratio)
C20G G25C | -6.42
A46U C73U C82U G93U G110U | -3.63
C49U U130A | -0.901
G52U C62G C89G U109C A111U | -6.22
U38A C53G C88G G120A C123G | -1.3
A29U G39A G117A | -2.71
G17C C72U C101A C115A C123A | -5.23
C12U G48A C56G C72U | -1.47
C64U C86A G135U | -2.35
C4U A41U U112A G113C G122C | -2.19
C12G C49G | -0.51
A66C U112A G128C | -4.27
C4U G71A U87A C97U | -1.86
A6U C56A | -0.282
C8G G61A C94U C99G G117C | -7.13
A75U C79G C88U U130G | -2.82
G44A A118G | -1.56
U96A U130C | -0.978
C20G G69U C99A | -4.6
A18C G61C | -2.87
